system: Escherichia coli TOP10; test: shrunken log2 fold change of peptide-encoding DNA abundance (4.5 h post-induction vs induction); higher = less antimicrobial activity (less host growth inhibition); conditions: time post-induction: 4.5 h; library: site-saturation at positions 5, 18, 19, 20
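Also: peptides expressed intracellularly from a pBAD plasmid library in pooled LB shake-flask culture, induced with 0.3% L-arabinose, DNA abundance read by NGS, three biological replicates, DESeq2 with apeglm shrinkage.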

Sequence | shrunken log2 fold change
RRIRIRPPRLPRPRPRPACVPRP | 0.0215
RRIRGRPPRLPRPRPRPIGAPRP | 0.251
RRIRTRPPRLPRPRPRPMIHPRP | -0.609
RRIRVRPPRLPRPRPRPVWFPRP | -0.0288
RRIRNRPPRLPRPRPRPTGHPRP | 0.0742
RRIRCRPPRLPRPRPRPSIQPRP | -0.655
RRIRYRPPRLPRPRPRPWNFPRP | -0.00304
RRIRQRPPRLPRPRPRPVHQPRP | -0.104
RRIRDRPPRLPRPRPRPRYGPRP | -0.0472
RRIRCRPPRLPRPRPRPHLQPRP | -0.319
RRIRVRPPRLPRPRPRPMICPRP | -0.0606
RRIRDRPPRLPRPRPRPHPGPRP | 0.163
RRIRSRPPRLPRPRPRPQGGPRP | 0.171
RRIRRRPPRLPRPRPRPCVGPRP | -0.147
RRIRKRPPRLPRPRPRPSLAPRP | 0.614
RRIRHRPPRLPRPRPRPTNQPRP | -0.425
RRIRNRPPRLPRPRPRPCACPRP | -0.0293
RRIRNRPPRLPRPRPRPPQRPRP | 0.457
RRIRQRPPRLPRPRPRPIALPRP | -0.213
RRIRRRPPRLPRPRPRPWRNPRP | 0.0985
RRIRARPPRLPRPRPRPAEFPRP | 0.304
RRIRTRPPRLPRPRPRPMAGPRP | -0.109

Sequence | shrunken log2 fold change
RRIRARPPRLPRPRPRPTPIPRP | 0.747
RRIRSRPPRLPRPRPRPSMMPRP | -0.105
RRIRDRPPRLPRPRPRPYYMPRP | -0.399
RRIRSRPPRLPRPRPRPFKRPRP | -0.013
RRIRERPPRLPRPRPRPECKPRP | -0.132
RRIRLRPPRLPRPRPRPSREPRP | -0.104
RRIRRRPPRLPRPRPRPWCEPRP | -0.0981
RRIRQRPPRLPRPRPRPDPVPRP | 0.0565
RRIRPRPPRLPRPRPRPHLNPRP | -0.517
RRIRERPPRLPRPRPRPSCHPRP | -0.934
RRIRMRPPRLPRPRPRPMKTPRP | -0.00191
RRIRNRPPRLPRPRPRPGRTPRP | 0.153
RRIRHRPPRLPRPRPRPITFPRP | -0.0514
RRIRSRPPRLPRPRPRPCKHPRP | -0.216
RRIRERPPRLPRPRPRPVCEPRP | 0.162
RRIRTRPPRLPRPRPRPSPRPRP | 0.396
RRIRKRPPRLPRPRPRPQFIPRP | -0.0823
RRIRSRPPRLPRPRPRPDQPPRP | 0.0272
RRIRARPPRLPRPRPRPLLCPRP | 0.612
RRIRDRPPRLPRPRPRPDVPPRP | 0.221
RRIRNRPPRLPRPRPRPIYTPRP | -0.288
RRIRYRPPRLPRPRPRPGSGPRP | -0.0839

Sequence | shrunken log2 fold change
RRIRQRPPRLPRPRPRPPGYPRP | 0.225
RRIRNRPPRLPRPRPRPQNGPRP | 0.00902
RRIRPRPPRLPRPRPRPATGPRP | 0.0771
RRIRLRPPRLPRPRPRPEYFPRP | -0.0957
RRIRPRPPRLPRPRPRPIMHPRP | -0.0526
RRIRARPPRLPRPRPRPWKTPRP | -0.0874
RRIRWRPPRLPRPRPRPTGLPRP | 0.0239
RRIRSRPPRLPRPRPRPRSSPRP | -0.269
RRIRWRPPRLPRPRPRPLQCPRP | 0.101
RRIRYRPPRLPRPRPRPKTCPRP | -0.0102
RRIRIRPPRLPRPRPRPDYKPRP | -0.231
RRIRYRPPRLPRPRPRPIHDPRP | -1.22
RRIRFRPPRLPRPRPRPYVSPRP | -0.438
RRIRRRPPRLPRPRPRPNLYPRP | -0.0246
RRIRLRPPRLPRPRPRPMNPPRP | -0.0817
RRIRIRPPRLPRPRPRPLIQPRP | -1.02
RRIRWRPPRLPRPRPRPDDNPRP | 0.174
RRIRSRPPRLPRPRPRPEITPRP | -0.13
RRIRFRPPRLPRPRPRPTCSPRP | -0.0827
RRIRKRPPRLPRPRPRPAEAPRP | 0.959
RRIRTRPPRLPRPRPRPACEPRP | 0.0463
RRIRSRPPRLPRPRPRPIQDPRP | 0.00805

Sequence | shrunken log2 fold change
RRIRKRPPRLPRPRPRPASDPRP | 0.981
RRIRQRPPRLPRPRPRPDYQPRP | 0.00672
RRIRGRPPRLPRPRPRPVTLPRP | 0.149
RRIRKRPPRLPRPRPRPRPNPRP | 0.42
RRIRKRPPRLPRPRPRPGDAPRP | 0.571
RRIRKRPPRLPRPRPRPRHVPRP | 0.0906
RRIRRRPPRLPRPRPRPEGKPRP | 0.0207
RRIRCRPPRLPRPRPRPMLKPRP | -0.141
RRIRIRPPRLPRPRPRPQPRPRP | 0.343
RRIRHRPPRLPRPRPRPVMFPRP | -0.0942
RRIRLRPPRLPRPRPRPDNHPRP | -0.519
RRIRHRPPRLPRPRPRPSSYPRP | -0.649
RRIRHRPPRLPRPRPRPVHAPRP | 0.346
RRIRARPPRLPRPRPRPRQFPRP | 0.32
RRIRFRPPRLPRPRPRPRHQPRP | 0.0747
RRIRLRPPRLPRPRPRPHACPRP | 0.0658
RRIRPRPPRLPRPRPRPGAFPRP | 0.293
RRIRSRPPRLPRPRPRPRWWPRP | 1.26
RRIRERPPRLPRPRPRPGEMPRP | -0.0373
RRIRPRPPRLPRPRPRPMRMPRP | 0.268
RRIRDRPPRLPRPRPRPQDIPRP | -0.00598
RRIRARPPRLPRPRPRPQVGPRP | 0.391

Sequence | shrunken log2 fold change
RRIRIRPPRLPRPRPRPSPCPRP | -0.761
RRIRARPPRLPRPRPRPGAEPRP | 1.1
RRIRHRPPRLPRPRPRPGVRPRP | 0.175
RRIRRRPPRLPRPRPRPLKQPRP | 0.223
RRIRQRPPRLPRPRPRPQCIPRP | -0.0582
RRIRGRPPRLPRPRPRPATHPRP | 0.862
RRIRHRPPRLPRPRPRPLRDPRP | 0.271
RRIRKRPPRLPRPRPRPEAYPRP | 0.0226
RRIRTRPPRLPRPRPRPCINPRP | -0.686
RRIRHRPPRLPRPRPRPASGPRP | 0.368
RRIRPRPPRLPRPRPRPISPPRP | -0.115
RRIRERPPRLPRPRPRPKDEPRP | -0.379
RRIRVRPPRLPRPRPRPTNLPRP | 0.0684
RRIRMRPPRLPRPRPRPHNIPRP | -0.0272
RRIRRRPPRLPRPRPRPCTDPRP | -0.115
RRIRTRPPRLPRPRPRPTRSPRP | -0.111
RRIRDRPPRLPRPRPRPNGVPRP | -0.0244
RRIRRRPPRLPRPRPRPDSLPRP | 0.0868
RRIRPRPPRLPRPRPRPNAYPRP | -0.0709
RRIRGRPPRLPRPRPRPEYTPRP | 0.335
RRIRARPPRLPRPRPRPFVRPRP | -0.0552

— the supplement of paper PMC9112550, “Optimization of the antimicrobial peptide Bac7 by deep mutational scanning” (BMC Biology, 2022)
